Results taken from patent publication US11649460B2, “DNA aptamers, method for inhibiting human galectin-1 and method of treating a mammal in need thereof” (priority 2020, dated 2023).

How the values were obtained:
[1] = tested on: HCT 116 human colorectal carcinoma; test: SRB cell proliferation (cytotoxicity) assay, HCT 116
Description: (§1) The XLSTAT software was used to determine the IC50, TGI and LC50 values using the four-parameter logistic curve equation.

[2] = tested on: OVCAR-3 cell line; test: Synergism test with cisplatin, OVCAR-3; settings: aptamer 12.5 μM associated with cisplatin 3 μM
Description: For the analysis of cell proliferation, the non-clonogenic method of sulforodamine B (SRB) was used, a protein dye that binds to the basic amino acid residues of cell proteins that were viable at the time of the fixation process. Therefore, the greater the amount of SRB bound per compartment, the less the antiproliferative activity of the item under study.

[3] = tested on: HT-29 human colorectal adenocarcinoma; test: SRB cell proliferation (cytotoxicity) assay, HT-29
Description: as §1

[4] = tested on: SK-BR-3 human breast adenocarcinoma; test: SRB cell proliferation (cytotoxicity) assay, SK-BR-3
Description: as §1

[5] = tested on: DU-145 human prostate carcinoma cell line; test: SRB cell proliferation (cytotoxicity) assay, DU-145
Description: as §1

[6] = tested on: MCF-7 human breast adenocarcinoma cell line; test: SRB cell proliferation (cytotoxicity) assay, MCF-7
Description: as §1

[7] = tested on: alkylated galectin-1; test: Thermofluor thermal shift assay (TSA), alkylated galectin-1; assay type: binding, human; settings: 5 μM protein
Sequence of alkylated galectin-1 (P09382 2-135): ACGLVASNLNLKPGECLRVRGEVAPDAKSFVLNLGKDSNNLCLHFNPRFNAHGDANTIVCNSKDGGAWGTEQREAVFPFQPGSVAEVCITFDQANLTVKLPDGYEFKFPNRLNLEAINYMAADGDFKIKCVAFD
Description: In an attempt to screen among the selected aptamers that better interact with hGal1, differential scanning fluorimetry (Termofluor) was used to characterize their binding to its target. Among all the selected aptamers, SEQ ID NO.: 4 seemed to have a more intense effect on hGal1 thermoshift and so was chosen for further analysis. The selected aptamer had its interaction evaluated with native and alkylated galectin-1. […] The respective thermal displacements were evaluated as a function of an increasing concentration of SEQ ID NO.: 4 (FIG. 1).
Thermofluor experiments were performed on an Mx3005 RT-PCR (Agilent Technologies) using the SYPRO® Orange dye (492/610 nm) (Invitrogen) as fluorescent probe. The purified (native and alkylated) protein samples were incubated for 30 min with increasing concentration of the molecules of interest, centrifuged, and submitted to the thermal denaturation assay, totalizing four distinct experiments. In a 96-well plate (Agilent Technologies) 20 μl of the reaction containing 5 μM of each protein in buffer PBS 1× and 5× SYPRO® Orange were heated from 25° C. to 95° C. at a rate of 1° C./min. The experimental result was processed as in the protocol previously described and the melting temperature was obtained using GraphPad Prism software (www.graphpad.com).

[8] = tested on: NHF human foreskin skin fibroblasts; test: in vitro
Description: as §1

[9] = molecular target: T1, native human galectin-1 (hGal1) (Homo sapiens, UniProt P09382); test: Thermofluor thermal shift assay (TSA), native galectin-1; assay type: binding; settings: 5 μM protein
T1 construct: 42; made in house; host or cells: E. coli strain M-15
T1 sequence (P09382 2-135): as above
Outline: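 Purified native or alkylated hGal1 (5 μM) was incubated 30 min with increasing aptamer SEQ ID NO.: 4 concentrations in PBS 1× with 5× SYPRO Orange. Samples were heated 25–95 °C at 1 °C/min, and melting temperature was derived from the fluorescence denaturation curves.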

[10] = tested on: A-375 human malignant melanoma; test: SRB cell proliferation (cytotoxicity) assay, A-375
Description: as §1

[11] = molecular target: T2, human galectin-1 (hGal1) (Homo sapiens, UniProt P09382); test: Tryptophan fluorescence quenching (Stern-Volmer); assay type: binding; settings: Stern-Volmer fit; 5 μM hGal1, aptamer 0 to 7.2 μM; read-out: apparent dissociation constant
T2 construct: 42; made in house; host or cells: E. coli strain M-15
T2 sequence (P09382 2-135): as above
Description: Fluorescence measurements were taken by a spectrofluorimeter HITACHI F-4500, the spectra were collected by excitation and emission at a rate of 240 nm per min, using a 5 nm slit widths and recorded at room temperature. A total of 5 μM hGal1 solution was incubated for 10 hours with aptamer aliquots as quencher, from 0 to 7.2 μM, in PBS 1× buffer. The spectra were obtained between 300-450 nm after excitation at 295 nm and all buffer contributions were corrected for measurements. As previously described, the log of fluorescence quenching was evaluated by plotting it versus log of aptamer concentration. The Stern-Volmer equation was used to estimate the number of interacting sites (n) and the apparent kD.
Human galectin-1 tryptophan residue has an emission peak at 348 nm after […] exited. SEQ ID NO.: 4 promotes changes the fluorescence spectrum of Trp68, which is the sole Trp in the subunit of hGal1 and is one of the residues constituting its CRD. Upon the aptamer addition, fluorescence emission decreased (FIG. 1C). The fluorescence quenching log versus aptamer concentration log measurements was plotted and it was fitted with Stern-volmer equation. The best fit established apparent dissociation constant of approximately 31.9 nM and a binding site of 1.5 (FIG. 1D).

B1: CTGACACAGCAGGTTGGTGCCAACTAACACCATAAGAATACCCCGCTCCAAATAAGCCCACACGTAAACCCGAGTCGAGCAATCTCGAAAT (nucleic acid)
DNA: CTGACACAGCAGGTTGGTGCCAACTAACACCATAAGAATACCCCGCTCCAAATAAGCCCACACGTAAACCCGAGTCGAGCAATCTCGAAAT
modifications: chemistry not given here
notes: DNA aptamer that recognizes human galectin-1
[1]; 0.781 µM
  Relative cell viability (%) of test items: 103.6%
[1]; 1.562 µM
  Relative cell viability (%) of test items: 95.4%
[1]; 3.125 µM
  Relative cell viability (%) of test items: 85.5%
[1]; 6.25 µM
  Relative cell viability (%) of test items: 85.0%
[1]; 12.5 µM
  Relative cell viability (%) of test items: 57.1%
[1]; 25 µM
  Relative cell viability (%) of test items: 24.4%
[1]; 50 µM
  Relative cell viability (%) of test items: 3.6%
[1]; 100 µM
  Relative cell viability (%) of test items: −70.2%
[1]; HCT 116
  TGI: Concentration for total inhibition of cell growth: 45.410 µM
[1]; read-out: IC50: Concentration to inhibit 50% of cell growth, HCT 116
  IC50: 16.8 µM
[1]; read-out: LC50: Concentration for 50% cell death, HCT 116
  CC50: 84.4 µM
[2]
  decrease of cell viability versus cisplatin alone: ~60%
[3]; 0.781 µM
  Relative cell viability (%) of test items: 93.5%
[3]; 1.562 µM
  Relative cell viability (%) of test items: 90.7%
[3]; 3.125 µM
  Relative cell viability (%) of test items: 88.6%
[3]; 6.25 µM
  Relative cell viability (%) of test items: 74.6%
[3]; 12.5 µM
  Relative cell viability (%) of test items: 47.4%
[3]; 25 µM
  Relative cell viability (%) of test items: 5.8%
[3]; 50 µM
  Relative cell viability (%) of test items: −84.0%
[3]; 100 µM
  Relative cell viability (%) of test items: −61.1%
[3]; HT-29
  TGI: Concentration for total inhibition of cell growth: 22.932 µM
[3]; read-out: IC50: Concentration to inhibit 50% of cell growth, HT-29
  IC50: 13.5 µM
[3]; read-out: LC50: Concentration for 50% cell death, HT-29
  CC50: 40.9 µM
[4]; 0.781 µM
  Relative cell viability (%) of test items: 101.9%
[4]; 1.562 µM
  Relative cell viability (%) of test items: 103.4%
[4]; 3.125 µM
  Relative cell viability (%) of test items: 98.6%
[4]; 6.25 µM
  Relative cell viability (%) of test items: 106.2%
[4]; 12.5 µM
  Relative cell viability (%) of test items: 96.1%
[4]; 25 µM
  Relative cell viability (%) of test items: 47.0%
[4]; 50 µM
  Relative cell viability (%) of test items: −34.6%
[4]; 100 µM
  Relative cell viability (%) of test items: −86.3%
[4]; SK-BR-3
  TGI: Concentration for total inhibition of cell growth: 37.515 µM
[4]; read-out: IC50: Concentration to inhibit 50% of cell growth, SK-BR-3
  IC50: 25 µM
[4]; read-out: LC50: Concentration for 50% cell death, SK-BR-3
  CC50: 56.9 µM
[5]; 0.781 µM
  Relative viability (%) of test items: 109.3%
[5]; 1.562 µM
  Relative viability (%) of test items: 100.6%
[5]; 3.125 µM
  Relative viability (%) of test items: 104.7%
[5]; 6.25 µM
  Relative viability (%) of test items: 109.6%
[5]; 12.5 µM
  Relative viability (%) of test items: 104.3%
[5]; 25 µM
  Relative viability (%) of test items: 88.5%
[5]; 50 µM
  Relative viability (%) of test items: 68.4%
[5]; 100 µM
  Relative viability (%) of test items: 36.0%
[5]; read-out: IC50: Concentration to inhibit 50% of cell growth, DU-145
  IC50: 72.6 µM
[6]; 0.781 µM
  Relative viability (%) of test items: 110.4%
[6]; 1.562 µM
  Relative viability (%) of test items: 96.7%
[6]; 3.125 µM
  Relative viability (%) of test items: 95.8%
[6]; 6.25 µM
  Relative viability (%) of test items: 86.2%
[6]; 12.5 µM
  Relative viability (%) of test items: 72.7%
[6]; 25 µM
  Relative viability (%) of test items: 60.9%
[6]; 50 µM
  Relative viability (%) of test items: 43.4%
[6]; 100 µM
  Relative viability (%) of test items: 0.7%
[6]; MCF-7
  TGI: Concentration for total inhibition of cell growth: >100 µM
[6]; read-out: IC50: Concentration to inhibit 50% of cell growth, MCF-7
  IC50: 35.1 µM
[6]; read-out: LC50: Concentration for 50% cell death, MCF-7
  CC50: > 100 µM
[7]
  temperature variation (Tm) of alkylated galectin-1: not significant
[8]; 0.781 µM
  Relative viability (%) of test items: 95.3%
[8]; 1.562 µM
  Relative viability (%) of test items: 94.2%
[8]; 3.125 µM
  Relative viability (%) of test items: 98.4%
[8]; 6.25 µM
  Relative viability (%) of test items: 100.7%
[8]; 12.5 µM
  Relative viability (%) of test items: 106.6%
[8]; 25 µM
  Relative viability (%) of test items: 73.4%
[8]; 50 µM
  Relative viability (%) of test items: 19.8%
[8]; 100 µM
  Relative viability (%) of test items: −25.4%
[8]; NHF
  TGI: Concentration for total inhibition of cell growth: 63.101 µM
[8]; read-out: IC50: Concentration to inhibit 50% of cell growth, NHF
  IC50: 35.6 µM
[9]
  variation of denaturation temperature (Tm) of native hGal1: greater variation
[9]; listed as SEQ ID NO.: 4
  variation of denaturation temperature (Tm) of native hGal1: marked decrease in Tm
[10]; 0.781 µM
  Relative cell viability (%) of test items: 109.5%
[10]; 1.562 µM
  Relative cell viability (%) of test items: 100.6%
[10]; 3.125 µM
  Relative cell viability (%) of test items: 103.0%
[10]; 6.25 µM
  Relative cell viability (%) of test items: 97.3%
[10]; 12.5 µM
  Relative cell viability (%) of test items: 85.8%
[10]; 25 µM
  Relative cell viability (%) of test items: 35.7%
[10]; 50 µM
  Relative cell viability (%) of test items: −69.0%
[10]; 100 µM
  Relative cell viability (%) of test items: −72.3%
[10]; A-375
  TGI: Concentration for total inhibition of cell growth: 29.656 µM
[10]; read-out: IC50: Concentration to inhibit 50% of cell growth, A-375
  IC50: 22.7 µM
[10]; read-out: LC50: Concentration for 50% cell death, A-375
  CC50: 41.1 µM
[11]
  Kd: ~0.0319 µM
